Experiment [1] has as its target T1, FGFR3 Ig domain II with Fc tag (UniProt P22607 151-244).
T1 construct: domain: FGFR3 Ig domain II; Recombinant domain made in mammalian cells; also called domain No. 2
T1 sequence: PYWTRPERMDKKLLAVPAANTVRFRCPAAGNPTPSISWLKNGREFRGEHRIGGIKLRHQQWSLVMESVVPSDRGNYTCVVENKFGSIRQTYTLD
Description: FGFR3 Domain ELISA, AMB302#1, bar Domain#2. The method, then: (§1) FGFR3 is composed of three domains, so each domain (FGFR3 Ig domain I, domain II, domain III) is attached with an Fc tag to analyze the FGFR3-binding domain of the discovered antibody, and produced and purified through a mammalian cell protein expression system (FIG. 9C). Analysis of the binding ability of the antibody to the purified domain was performed in the same manner as the ELISA described above. 1 μg/ml of an antigen was coated and treated with the antibody to induce a TMB color reaction. […] However, the epitope of the comparative antibody is included in domain No. 2, which was conducted according to the present invention. In addition, ligands of FGF1 and FGF9, and FGFR3 have been reported to bind to Ig domain II and domain III of FGFR3. Based on this, competition ELISA assay was conducted. […] This supports binding of F309 antibody to the aforementioned FGFR3 Ig domain I (FIG. 9A).
(§2) The epitope domain mapping performed above was also performed on the affinity matured antibody F309 #SSM236 (hereinafter referred to as AMB302 #1.2). […] The antibody was also found to have specific binding ability to human/cyno FGFR3 (FIG. 17).

In experiment [2] the target is T2, human FGFR3 IIIb recombinant protein (1264-FR-050, R&D) (human, UniProt P22607-2 23-377).
T2 construct: Bought recombinant antigen; also called rhFGFR3-IIIb; FGFR3-IIIb (Human)
T2 sequence (looked up): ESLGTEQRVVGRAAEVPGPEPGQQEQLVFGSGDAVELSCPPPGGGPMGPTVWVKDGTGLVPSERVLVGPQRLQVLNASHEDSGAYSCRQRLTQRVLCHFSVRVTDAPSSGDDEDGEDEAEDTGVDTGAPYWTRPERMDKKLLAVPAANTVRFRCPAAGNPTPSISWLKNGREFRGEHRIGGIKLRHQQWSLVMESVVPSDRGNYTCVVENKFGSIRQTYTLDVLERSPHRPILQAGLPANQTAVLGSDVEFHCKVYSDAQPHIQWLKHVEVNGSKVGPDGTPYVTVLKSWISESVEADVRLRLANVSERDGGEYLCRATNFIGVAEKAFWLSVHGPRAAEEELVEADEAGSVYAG
Description: direct-binding ELISA on rhFGFR3-IIIb, 1' screening (row head prints IC50). In general terms: An ELISA detects its analyte on a solid surface through an enzyme-linked reagent.

In experiment [3] the target is T3, Domain#3 (human, UniProt P22607).
T3 construct: single domain fused to human IgG1 Fc; also called FGFR3 Domain 3; FGFR3 Ig domain III with Fc tag
T3 sequence (Fc fusion chain): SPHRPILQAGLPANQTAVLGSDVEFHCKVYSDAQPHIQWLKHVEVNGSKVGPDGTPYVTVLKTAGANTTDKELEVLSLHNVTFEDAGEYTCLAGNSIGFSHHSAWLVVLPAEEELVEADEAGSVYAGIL
Description: ELISA on Fc-tagged FGFR3 constructs (FGFR3 domain mapping), bar Domain#3. Here is the method:
(§3) Affinity ELISA was performed to determine the binding ability of the produced antibody (IgG) to the FGFR3 antigen. A 96-well plate (4° C., overnight) was coated with […] of FGFR3 antigen and blocked with 3% skim milk (PBS) (room temperature, 1 hour). Then, the plate was treated with previously serially diluted antibody samples in duplicate and triplicate, and reacted at room temperature for 1 hour. Then, the result was washed with PBST 2 to 3 times, treated with the HRP-conjugated anti-human Fab antibody diluted in skim milk (room temperature, 1 hour), and washed again with PBST, and a color reaction (TMB substrate) was performed. Then, O.D. was measured at 450 nm.
FGFR3 is composed of three domains, so each domain (FGFR3 Ig domain I, domain II, domain III) is attached with an Fc tag to analyze the FGFR3-binding domain of the discovered antibody, and produced and purified through a mammalian cell protein expression system (FIG. 9C). Analysis of the binding ability of the antibody to the purified domain was performed in the same manner as the ELISA described above. 1 μg/ml of an antigen was coated and treated with the antibody to induce a TMB color reaction. […] However, the epitope of the comparative antibody is included in domain No. 2, which was conducted according to the present invention. […]

The target of experiment [4] is T2, human FGFR3 IIIb recombinant protein …. Description: direct-binding ELISA on rhFGFR3-IIIb, 2' screening, plate 1 (row head prints IC50).
Experiment [5] deals with T4, monkey FGFR3 recombinant protein (90313-C02H, Sino Biological) (cynomolgus monkey, UniProt A0A2K5V1U5 23-376).
T4 construct: Bought recombinant antigen; also called cynomolgus monkey FGFR3; cyno FGFR3
T4 sequence: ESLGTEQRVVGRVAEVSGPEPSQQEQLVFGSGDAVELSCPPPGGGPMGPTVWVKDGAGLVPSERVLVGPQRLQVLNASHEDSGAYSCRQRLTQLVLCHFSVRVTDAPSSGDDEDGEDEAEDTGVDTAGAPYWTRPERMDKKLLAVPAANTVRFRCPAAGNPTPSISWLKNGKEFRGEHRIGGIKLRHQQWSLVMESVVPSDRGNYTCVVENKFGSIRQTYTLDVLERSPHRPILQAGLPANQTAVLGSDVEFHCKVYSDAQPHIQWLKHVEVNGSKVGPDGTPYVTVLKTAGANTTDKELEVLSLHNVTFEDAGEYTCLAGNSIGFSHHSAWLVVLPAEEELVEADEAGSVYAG
Description: SPR, table under the sensorgrams, column KD, row FGFR3 Monkey; unit inferred. (In general: SPR reads the build-up and loss of mass on a sensor chip optically.)

In experiment [6] the target is T2, human FGFR3 IIIb recombinant protein …. Description: SPR, table under the sensorgrams, column KD, row FGFR3-IIIb Human; unit inferred.
Experiment [7] has as its target T5, human FGFR3 IIIc recombinant protein (766-FR-050, R&D) (human, UniProt P22607 23-375).
T5 construct: Bought recombinant antigen; also called FGFR3-IIIc (Human)
T5 sequence (looked up): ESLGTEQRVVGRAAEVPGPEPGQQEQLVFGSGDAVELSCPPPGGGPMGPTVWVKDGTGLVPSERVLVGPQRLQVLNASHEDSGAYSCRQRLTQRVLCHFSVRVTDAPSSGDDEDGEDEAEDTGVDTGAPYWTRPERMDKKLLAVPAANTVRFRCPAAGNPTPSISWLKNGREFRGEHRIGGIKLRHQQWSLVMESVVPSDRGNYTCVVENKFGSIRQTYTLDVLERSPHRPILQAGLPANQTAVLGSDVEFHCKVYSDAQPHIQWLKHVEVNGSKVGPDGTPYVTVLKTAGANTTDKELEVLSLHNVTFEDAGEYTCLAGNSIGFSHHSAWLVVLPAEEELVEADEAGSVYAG
Description: SPR, table under the sensorgrams, column KD, row FGFR3-IIIc Human; unit inferred.

Experiment [8] deals with T2, human FGFR3 IIIb recombinant protein …. Description: direct-binding ELISA on rhFGFR3-IIIb, 2' screening, plate 2 (row head prints IC50); 2' screening, Plate2.
The target of experiment [9] is T4, monkey FGFR3 recombinant protein …. Description: ELISA on cynoFGFR3. The method, then: as §3
(§4) The binding ability of the produced antibody (IgG) to human FGFR3 IIIb (1264-FR-050, R&D), IIIc (766-FR-050, R&D), mouse FGFR3 (9089-FR, R&D), and monkey FGFR3 (90313-C02H, Sino Biological) antigens was determined in the same manner as above.
as §2

Experiment [10] addresses T5, human FGFR3 IIIc recombinant protein …. Description: ELISA on humanFGFR3-IIIc. The method, then: as §3, §4, §2
For experiment [11], the target named is T6, FGFR3 recombinant protein (isoform not given) (Homo sapiens (Human), UniProt P22607 23-375, limits assumed).
T6 construct: also called FGFR3 antigen
T6 sequence: T5 sequence (looked up)
Description: affinity ELISA on hFGFR3, lower left panel. The method, then:
as §3
The antigen affinity of the synthesized ADC sample (TOPOI-conjugated ADC) was determined by ELISA and the determination was performed in the same manner as the affinity ELISA performed in the present invention. […] In addition, the high purity physical properties of the prepared ADC were identified through SEC-HPLC analysis.

For experiment [12], the target named is T1, FGFR3 Ig domain II with Fc tag. Description: FGFR3 Domain ELISA, AMB302#1.2, bar Domain#2. Here is the method:
as §1, §2

Experiment [13] has as its target T3, Domain#3. Description: FGFR3 Domain ELISA, AMB302#1.2, bar Domain#3. The method, then: as §1, §2
Experiment [14] addresses T4, monkey FGFR3 recombinant protein …. Description: SPR (Biacore), antigen immobilised 92 RU, antibody injected.
Experiment [15] concerns the target T5, human FGFR3 IIIc recombinant protein …. Description: SPR (Biacore), antigen immobilised 74.5 RU, antibody injected.
The target of experiment [16] is T2, human FGFR3 IIIb recombinant protein …. Description: SPR (Biacore), antigen immobilised 276.2 RU, antibody injected.
The target is the same in experiment [17]. Description: direct-binding ELISA on rhFGFR3-IIIb, 1' screening (row head prints IC50); 1' screening.

These results are taken from patent US20240101684A1 (AIMED BIO, published 2024).

Where a chain is given by its changes, count along the chain named.

B1: F309 (antibody, V domains shown)
VH: EVQLLESGGGLVQPGGSLRLSCAASGFTFSSYDMSWVRQAPGKGLEWVSGIYSGDGSIYYADSVKGRFTISRDNSKNTLYLQMNSLRAEDTAVYYCAKDAPTNEMSRFDYWGQGTLVTVSS
VL: QSVLTQPPSASGTPGQRVTISCSGSSSNIGNNYVSWYQQLPGTAPKLLIYADSKRPSGVPDRFSGSKSGTSASLAISGLRSEDEADYYCASWDYSLSGYVFGGGTKLTVL
notes: also called F309 antibody; F309 clone
Broadly, the EC50 is the concentration giving half of the maximal effect. One may read the Kd as the equilibrium constant for the complex coming apart. Take B1: the binding result (in experiment [1]; with Domain#3 [3]) was “no binding” each time. The EC50 in [2] came to 0.67 nM; in [4], 80.4 nM; in [8], 67 nM. For the same molecule, the Kd in experiment [5] stood at 32.8 nM; in experiment [6], 10.4 nM; in experiment [7] it was 11.1 nM.

B2: F309#SSM236 (antibody, V domains shown)
VH: B1 VH with A100G, T102M, M105E
VL: B1 VL
notes: also called AMB302 #1.2; AMB302#1.2
Broadly, the EC50 (read off the curve) is the concentration needed to bring the measured effect to its halfway point. As for B2, the “EC50 (read off the curve)” value in experiment [9] is roughly 0.3 nM; in experiment [10], roughly 0.3 nM; in experiment [11] it was roughly 0.4 nM. Moreover, the binding result (in experiment [12]; with Domain#3 [13]) was “no binding” throughout. Besides, the Kd is 0.755 nM in experiment [14], 0.309 nM in [15] and 0.59 nM in experiment [16]. Besides, in experiment [4], the EC50 amounted to 0.753 nM.

B3: F309#SSM001 (antibody, V domains shown)
VH: B1 VH with A100Y
VL: B1 VL
For the molecule B3, the EC50 in [17] was determined as 2190 nM.
